Measurements taken from patent publication US20170128520A1 (E AND B TECHNOLOGIES, published 2017).

Target: T1, endothelial nitric oxide synthase (eNOS) of cultured bovine aorta endothelial cells (BAEC) (bovine, UniProt P29473 2-1205)
T1 sequence (looked up): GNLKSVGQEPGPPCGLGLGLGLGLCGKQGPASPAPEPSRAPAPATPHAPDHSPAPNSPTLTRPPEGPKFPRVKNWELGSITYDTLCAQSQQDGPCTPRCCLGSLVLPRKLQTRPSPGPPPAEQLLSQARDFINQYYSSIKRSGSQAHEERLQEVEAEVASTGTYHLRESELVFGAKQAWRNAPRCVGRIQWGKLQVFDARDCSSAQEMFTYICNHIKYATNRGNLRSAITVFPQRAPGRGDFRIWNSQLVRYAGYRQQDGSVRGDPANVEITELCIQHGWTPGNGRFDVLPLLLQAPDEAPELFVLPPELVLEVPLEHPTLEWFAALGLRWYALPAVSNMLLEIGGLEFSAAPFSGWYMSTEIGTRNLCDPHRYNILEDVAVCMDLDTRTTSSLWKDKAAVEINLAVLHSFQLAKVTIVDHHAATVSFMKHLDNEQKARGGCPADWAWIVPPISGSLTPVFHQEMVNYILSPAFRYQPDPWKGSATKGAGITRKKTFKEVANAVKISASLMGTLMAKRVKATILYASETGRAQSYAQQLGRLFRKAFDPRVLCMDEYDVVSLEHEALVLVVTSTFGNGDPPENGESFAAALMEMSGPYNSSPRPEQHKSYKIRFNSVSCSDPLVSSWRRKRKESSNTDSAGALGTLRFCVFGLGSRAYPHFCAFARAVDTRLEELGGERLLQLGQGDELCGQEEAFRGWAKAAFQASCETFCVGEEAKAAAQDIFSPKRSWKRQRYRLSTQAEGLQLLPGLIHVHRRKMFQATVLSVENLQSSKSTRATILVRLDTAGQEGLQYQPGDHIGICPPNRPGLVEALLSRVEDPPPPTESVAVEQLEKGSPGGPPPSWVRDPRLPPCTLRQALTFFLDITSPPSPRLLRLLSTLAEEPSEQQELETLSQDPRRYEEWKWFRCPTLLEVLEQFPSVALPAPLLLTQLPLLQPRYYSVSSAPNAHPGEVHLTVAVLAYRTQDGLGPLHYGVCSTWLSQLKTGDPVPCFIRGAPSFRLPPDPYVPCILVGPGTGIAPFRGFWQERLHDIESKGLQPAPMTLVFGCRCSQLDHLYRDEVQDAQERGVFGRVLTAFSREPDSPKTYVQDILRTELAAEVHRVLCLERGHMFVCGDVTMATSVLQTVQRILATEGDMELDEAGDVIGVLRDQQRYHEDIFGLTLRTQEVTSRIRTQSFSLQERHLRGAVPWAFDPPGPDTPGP
Assay: cell-based or functional assay

B1: AP-Cav (SEQ ID NO. 2/SEQ ID NO. 5) (peptide)
peptide: RQIKIWFQNRRMKWKKDGIWKASFTTFTVTKYWFYR
- EC50 of inhibition of VEGF-induced NO release by BAEC (dose response, non-linear regression): 1.8 µM

B2: Endo5-Cav (SEQ ID NO. 1/SEQ ID NO. 5) (peptide)
peptide: RRPPRDGIWKASFTTFTVTKYWFYR
- EC50 of inhibition of VEGF-induced NO release by BAEC (dose response, non-linear regression): 7.5 µM
